Test results from PMC4592603, “Cloning, Expression, Sequence Analysis and Homology Modeling of the Prolyl Endoprotease from Eurygaster integriceps Puton” (Insects, 2014).

Substrate: O=C(NCC(=O)N1CCC[C@H]1C(=O)Nc1ccc([N+](=O)[O-])cc1)OCc1ccccc1
Experiment: purified protein
Assay type: biochemical, Eurygaster integriceps
Conditions: 25 mM ethanolamine, pH 8.5, 0.1 M NaCl, 1 mM DTT, 37 °C, abstract prints 210 ± 53 µM

B1: spPEP (sunn pest prolyl endoprotease) (Eurygaster integriceps) (protein)
chain: MKKFQYPEARRDETIKETFFGIEVADPYRWLEDPDSEETKNFVDAQNSISEPYLKGCPARDKIKARLTQMLDYPKYSPPEKEGNHYFYFKNTGLQNHSVLYMQDSLDGPSKVFLDPNTFSSDGTVALTSTSFSEDGSIMGYTVSKSGSDWCTIHFRRVDTGEDYPEELKFVKFGHAAWTHDNLGVFYTRFPEVEGKSDGSETSQNRNQKIYYHKVGTPQSEDILVVELDDPEYIYTVCVSDCGRGVVILPSKFCHNNLVYFSDLSTLKDGIKGKLDVTCIVDKFEADYEFVANTGSKFVFRTNKNAHNYKLVVIDFENHSEENWVTLVPEHPTDVLEQAVSVAQDKLVLCYIRDVKNTLDIHSLVDGSLIRKIPVPIGTVSSISGSKKHSEVFYTFISFTSPGTIYRCDLSQSPIPDPEVFRQITIPGYDPSMFEEKQVFYLSKDGTRIPMFLVHKKVLEQNGKNPCLVYGYGGFNISLLPMFSTIRLVFVQYFNAVFASANIRGGGEYGEKWHDGGRLLNKQNSFDDFIAAGEYLIAEKYTNKSCLAIQGASNGGLLIGASVKPPYWLLEDPEYIYTVCVSDCGRWAVILPSKFCYNNLVYFSVLFQEEHFKNVLKYSPLHNIRVPEDQYPALLLLTASHDDRVVPLHSLKYIAQLQHVMRDNPKQENPLLIQVETKAGHGAGKPTNKRIEEQVDILCFLMNSMNLKFIE
notes: full-length ORF (no signal peptide identified), N-terminal FLAG and 10xHis tag, pNYCOMPS-LIC vector, E. coli BL21(DE3), soluble fraction, Ni-NTA, about 80 kDa, tags not reported cut
B1 showed a Km of 211 ± 53 µM.
